Measurements published in patent publication US20220153824A1 (University of Pennsylvania, published 2022).

What was measured:
human C5a = molecular target: T1, human C5a (human, UniProt P01031 678-751); experiment: ELISA, plate coated with human C5a
T1 construct: domain: C5a; Purified human C5a (Hycult) in ELISA; recombinant human C5a in the Transwell assay; also called free human C5a; recombinant human complement C5a
T1 sequence (looked up): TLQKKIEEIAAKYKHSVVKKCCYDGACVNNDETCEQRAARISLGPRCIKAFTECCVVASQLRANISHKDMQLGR
Experimental: Polystyrene microtiter plates were coated with purified human C5 or C5a (50 ng/well, Hycult) in PBS at 37° C. for 1 hr. After aspirating the C5 or C5a solution, wells were blocked with PBS containing 1% BSA in PBS at room temperature for 1 hour. Wells without C5 or C5a coating served as background controls. Different concentration of 7A12 mAb or control anti-C5 mAb or chimeric 7A12, 50 μl/well in blocking solution, were added to the wells. Following 1 hour incubation at room temperature, the wells were extensively washed with PBST. Human C5 or C5a-bound mAb was detected by the addition of anti-mouse IgG HRP 1:4000 dilution in blocking solution, which was allowed to incubate for 1 hour at RT. After washing with PBST, the plate was developed with HRP substrate for 6-10 min. The reaction was stopped with 2N H2SO4 and plate was read at 450 nm in a micro plate reader.
(§1) An ELISA plate was coated with human C5a or mouse C5a. After incubation with serially diluted 7A12 or the control anti-C5 mAb, bound mAb was detected by HRP-conjugated anti-mouse IgG. […] Since mAb 7A12 reacts with the whole C5 protein (as shown in FIG. 1), it can be concluded that mAb 7A12 binds both the C5a moiety of native human C5 and free human C5a. On the other hand, no binding of the control anti-C5 mAb to human C5a was seen, as depicted in FIG. 3B.

mouse C5a = molecular target: T2, mouse C5a (mouse, UniProt P06684 679-755); experiment: ELISA, plate coated with mouse C5a
T2 construct: domain: C5a; also called purified mouse C5a
T2 sequence (looked up): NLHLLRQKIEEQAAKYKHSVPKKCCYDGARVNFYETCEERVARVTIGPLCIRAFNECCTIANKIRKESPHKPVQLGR
Experimental: as §1

B1: monoclonal anti-C5a antibody designated mAb 7A12 (antibody, V domains shown)
VH: QVQLQQSDAELVKPGASVKISCKVSGYTFTDHIIHWMNQRPEQGLEWIGYIYPRDGNTNYNENFKGKATLTADKSSSTAYMQLNSLTSEDSAVYFCARERNLEYFDYWGQGTTLTVSS
VL: DIVLTQSPASLAVSLGQRATISCKASQSVDYDGDNYMNWYQQKPGQPPKLLIYAASNLDSGIPARFSGSGSGTDFTLNIHPVEEEDAATYYCQQSNEDPYTFGGGTKLEIKR
notes: also called 7A12 mAb
binding result (human C5a): binds | binding result (mouse C5a): no binding
